Among the data in publication PMC3048791 are subunits per ring (symmetry of top views) values, retold here.

In the experiment the target is recombinant ATcpnβ thermosome subunit from Acidianus tengchongensis strain S5 (Acidianus tengchongensis strain S5). Nature of the experiment: cryo-EM structure.

Where “and” joins values, the source holds several entries; their conditions need not be identical. Equal values may be shown once.

On to “recombinant ATcpnβ thermosome subunit from Acidianus tengchongensis strain S5 (natural protein)”, for which the subunits per ring (symmetry of top views) was 9 and 10.
